Experimental data published in article PMC4504005 (2015).
Where “and” joins values, the source holds several entries; their conditions need not be identical. Equal values may be shown once. Ends that are not written are not given here.

Legend:
[1] = molecular target: wild-type tethered MBP-RAMP2 ECD-CLR ECD fusion protein (UniProt O60895 43-143)
[2] = molecular target: MBP-RAMP2 ECD [L106R]-(GSA)3-CLR ECD-H6 tethered fusion protein (UniProt O60895 43-143, L106R)
[3] = molecular target: MBP-RAMP1 ECD-(GSA)3-CLR ECD-H6 tethered fusion protein (UniProt O60894 27-118)

| IC50 [1] [µM] | IC50 [2] | IC50 [3] [µM] | Binder |
| --- | --- | --- | --- |
| 4.79 | 5.37 µM and 12.9 µM |  | TVQKLAHQIYQFTDKDKDNVAPRSKISPQGY-NH2 [AM(22–52)NH2] |
|  |  | 0.575 | FVPTDVGPFAY-NH2 [CGRPmut [F37Y]] |
